Assay results published in US12564623B2, “Methods and compositions for treating cancer” (The University of Chicago, priority 2017, dated 2026).

T1: CD95 (Homo sapiens, UniProt P25445)
T1 sequence (P25445 26-335): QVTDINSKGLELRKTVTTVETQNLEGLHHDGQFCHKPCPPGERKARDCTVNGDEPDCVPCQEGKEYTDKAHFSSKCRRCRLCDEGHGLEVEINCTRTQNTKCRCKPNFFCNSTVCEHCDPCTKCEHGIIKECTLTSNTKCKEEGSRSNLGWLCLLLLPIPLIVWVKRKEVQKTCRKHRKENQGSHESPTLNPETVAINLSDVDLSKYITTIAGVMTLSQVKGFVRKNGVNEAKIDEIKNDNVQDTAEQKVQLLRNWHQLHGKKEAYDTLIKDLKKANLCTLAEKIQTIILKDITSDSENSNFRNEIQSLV

T2: ELANE (Homo sapiens, UniProt P08246)
T2 construct: incubated the neutrophil conditioned media with magnetic beads coupled to an anti-ELANE antibody; endogenous in cells; host or cells: human peripheral blood neutrophils from healthy donors (conditioned media)
T2 sequence (P08246 30-267): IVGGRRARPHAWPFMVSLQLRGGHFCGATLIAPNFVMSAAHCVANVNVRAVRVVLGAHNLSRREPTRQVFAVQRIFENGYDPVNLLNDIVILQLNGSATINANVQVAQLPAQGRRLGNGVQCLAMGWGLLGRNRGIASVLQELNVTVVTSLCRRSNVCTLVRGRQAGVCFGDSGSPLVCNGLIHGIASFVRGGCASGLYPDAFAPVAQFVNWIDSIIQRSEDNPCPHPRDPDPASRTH


Columns and labels:
MDA-MB-231 cells = test: Cancer cell killing, Calcein AM staining; assay type: cell-based, human; settings: for cancer cell killing activity of purified protein: increasing doses, 5h; for cancer cell killing in combination with neutrophil conditioned media: Neu-CM 4 μg/mL, DOX 0.3 μM or PTX 3 nM, 4h
Description: Approach to identify the factor(s) mediating selective killing. A quantitative cancer cell killing assay was developed to track the bioactive factor(s). MDA-MB-231 cells were treated with various doses of PMN media and cell viability was assessed by Calcein AM live cells fluorescence staining. […] (FIG. 3B) PMN media was passed through a 0.22 μm filter, and protein concentration and killing activity on MDA-MB-231 cancer cells was measured in both pre- and post-filter solutions. […] ELANE and ECP levels in PMN media pre- and post-filtration were quantified by mass spectrometry (spectral counts).
To determine if ELANE and/or ECP were responsible, the inventors (1) immuno-depleted ELANE or ECP from PMN media; (2) treated cancer or normal cells with purified native ELANE or ECP from commercial sources. (FIG. 6A) ELANE or ECP were depleted from PMN media by immunoprecipitation; depletion was confirmed by western blotting. PMN media pre-depletion=Orig. and post-depletion=FT. Non-specific IgG was used as a control. (FIG. 6B) MDA-MB-231 cells or human monocyte-derived macrophages (HMDMs) were treated with purified native ELANE or ECP at various doses for 24h, and killing was assessed by Calcein AM staining. (FIG. 6C) MDA-MB-231 cells and HMDMs were treated with levels of ELANE (0.25 μg/mL) or ECP (0.05 μg/mL) that were present in the PMN media, alone or in combination for 24 hrs, and killing was examined by Calcein AM staining.
High doses of ECP or ELANE can kill cancer cells. The inventors sought to determine whether adding purified human ECP (Lee Biosolutions), human ELANE (Abcam), human DEFA1 (Abcam), human ANXA6 (R&D Systems) or human CASP3 (Abcam) individually could kill cancer cells without killing non-cancer cells. Increasing doses of each protein were added to MDA-MB-231 cells for 5h or human monocyte-derived macrophages (HMDMs) for 24 h and cell viability was determined by Calcein-AM.
ELANE and ECP synergize to selectively kill cancer cells. MDA-MB-231 and human monocyte-derived macrophages (HMDMs) were treated with levels of ELANE (0.25 μg/mL) or ECP (0.05 μg/mL) that were present in the PMN media, alone or in combination for 24 hrs. killing was examined by Calcein AM staining.
Combining chemotherapeutics and neutrophil conditioned media enhances the killing of human triple negative breast cancer cells. MDA-MB-231 cells were treated with neutrophil conditioned media (Neu-CM; 4 μg/mL), doxorubicin (DOX; 0.3 μM), or paclitaxel (PTX; 3 nM) for 4h, individually or in combination, and cell viability was assessed by Calcein-AM.
(§1) Other serine proteases cleave the C-terminal domain of CD95, and the ability to cleave the C-terminal domain is associated with cancer cell killing. (FIG. 12A) Full length recombinanat CD95 protein was incubated with various serine proteases (human ELANE (80 nM), PR3 (80 nM), CSTG (80 nM), PPE (80 nM), mouse ELANE (80 nM), rat ELANE (500 nM), GZMB (80 nM), or Trypsin (250 nM)), or other types of proteases (CTSC (80 nM); or MMP7 (80 nM), MMP9 (80 nM), CTSD (80 nM) not shown) at 37° C. for 2 hours. Degradation was assessed by SDS-PAGE followed by coomassie blue staining. (FIG. 12B) MDA-MB-231 cancer cells were incubated with various proteases for 24 hrs. Cell viability was assessed by Calcein AM staining.
(FIG. 13A) MDA-MB-231 cancer cells were treated with various doses of purified native ELANE or purified native porcine pancreatic elastase (PPE) for 6 h, and killing was assessed by Calcein AM staining. (FIG. 13B). Purified native ELANE or purified native PPE was incubated with different concentrations of alpha-1-anti-trypsin (A1AT) for 15 mins. Catalytic activity was measured using a chromogenic substrate assay. Cancer cell killing capability was determined by treating MDA-MB-231 cancer cells with ELANE or PPE in the presence or absence of A1AT for 6h, followed by Calcein AM staining. (FIG. 13C) Catalytic activity was measured using a chromogenic substrate assay. […]

CD95 = molecular target: T1, CD95; test: Recombinant CD95 degradation, SDS-PAGE and coomassie blue; assay type: biochemical; parameters: Recombinant proteins (1 μg) corresponding to full length CD95 (FL-CD95); settings: purified CD95
Description: ELANE lowers CD95 levels in cancer cells and reduced CD95 levels are associated with apoptosis. (FIG. 8A) Recombinant proteins (1 μg) corresponding to full length CD95 (FL-CD95), N-terminal domain of CD95 (amino acids 1-173; N-CD95), or C-terminal domain of CD95 (amino acids 157-320; C-CD95) were inbuated with ELANE (0.05 μg) or vehicle (Veh) for 2 hrs at 37° C. Degradation was assessed by SDS-PAGE followed by coomassie blue staining. […] (FIG. 8C) Cancer cells were treated with ELANE (50 nM) for 1 hr, fixed in 10% formalin, and stained with N- or C-terminal specific anti-CD95 antibodies (green). Hoechst 33342 solution was used for nuclear staining (blue). Images were taken under 40×.
ELANE selectively cleaves the C-terminal domain of CD95. The CD95 pathway is essential for the survival of a wide range of cancer cells, but largely dispensable for normal cell survival (Adachi et al., Nat. Genet., 1995; Karray et al., J. Immunol., 2004). CD95 function can be modulated by proteolysis (Strand et al., Oncogene, 2004). To test CD95 involvement in ELANE mediated cell killing ELANE (0.05 μg) was incubated with 1 μg recombinant human C-terminal (aa. 157-320) or N-terminal (aa. 1-173) CD95 for 2 hrs at 37° C. Degradation was assessed by SDS-PAGE followed by staining with coomassie blue. C-terminal domain cleavage. N-terminal domain cleavage. Cancer cells were treated with ELANE (50 nM) for 1 hr, fixed in 10% formalin, and stained with N- or C-terminal specific anti-CD95 antibodies. Hoechst 33342 solution was used for nuclear staining. Images were taken under 40×. […] Mel888 cancer cells were treated with ELANE (50 nM) for various times, and CD95 degradation was assessed by western blot analysis with a C-terminal specific anti-CD95 antibody.
as §1

ELANE = molecular target: T2, ELANE; test: Anti-ELANE magnetic bead pull-down from neutrophil conditioned media, western blotting; assay type: binding; settings: anti-ELANE antibody beads
Source text: Identification of ECP, ELANE, ANXA6, DEFA1, and CASP3 as candidate cancer cell killing proteins in the neutrophil conditioned media. Neutrophil conditioned media was obtained from 2 different donors (Donor 1 and Donor 2). […] To determine the identity of the proteins depleted by the 0.2 μm sterile filter, the inventors performed quantitative proteomics analysis on the conditioned media from each donor pre- and post-filter. Proteomics analysis identified 2000 proteins, 4 of which (ECP, ELANE, ANXA6, and DEFA1) were depleted in samples from both donors (G-test, p<0.05). The inventors explored the possibility that these proteins might interact with or complement one another. This hypothesis was tested using two approaches. First, the inventors incubated the neutrophil conditioned media with magnetic beads coupled to an anti-ELANE antibody and analyzed the supernatant (sup), wash, and eluent (elute) by western blotting.

Molecule	cancer cell killing by proteases (MDA-MB-231 cells)	cleavage of purified CD95 (CD95)	cancer cell killing activity of purified protein (MDA-MB-231 cells)	also measured
cathepsin G [CTSG]	killed cancer cells	cleaved purified CD95 with an identical degradation pattern to ELANE	–	–
DEFA1: purified human DEFA1 (Abcam)	–	–	low amount of activity	binding to ELANE (ELANE): ELANE-binding proteins
CC(=O)O[C@H]1C(=O)[C@@]2(C)[C@H]([C@H](OC(=O)c3ccccc3)[C@]3(O)C[C@H](OC(=O)[C@H](O)[C@@H](NC(=O)c4ccccc4)c4ccccc4)C(C)=C1C3(C)C)[C@]1(OC(C)=O)CO[C@@H]1C[C@@H]2O [paclitaxel, reference compound]	–	–	–	cancer cell killing in combination with neutrophil conditioned media (MDA-MB-231 cells): enhanced cancer cell killing
COc1cccc2c1C(=O)c1c(O)c3c(c(O)c1C2=O)C[C@@](O)(C(=O)CO)C[C@@H]3O[C@H]1C[C@H](N)[C@H](O)[C@H](C)O1 [doxorubicin, reference compound]	–	–	–	cancer cell killing in combination with neutrophil conditioned media (MDA-MB-231 cells): enhanced cancer cell killing
proteinase 3 (protein, listed as Homo sapiens) MAHRPPSPALASVLLALLLSGAARAAEIVGGHEAQPHSRPYMASLQMRGNPGSHFCGGTLIHPSFVLTAAHCLRDIPQRLVNVVLGAHNVRTQEPTQQHFSVAQVFLNNYDAENKLNDVLLIQLSSPANLSASVATVQLPQQDQPVPHGTQCLAMGWGRVGAHDPPAQVLQELNVTVVTFFCRPHNICTFVPRRKAGICFGDSGGPLICDGIIQGIDSFVIWGCATRLFPDFFTRVALYVDWIRSTLRRVEAKGRP	killed cancer cells	cleaved purified CD95 with an identical degradation pattern to ELANE	–	–
CASP3: purified human CASP3 (Abcam) (protein) MENTENSVDSKSIKNLEPKIIHGSESMDSGISLDNSYKMDYPEMGLCIIINNKNFHKSTGMTSRSGTDVDAANLRETFRNLKYEVRNKNDLTREEIVELMRDVSKEDHSKRSSFVCVLLSHGEEGIIFGTNGPVDLKKITNFFRGDRCRSLTGKPKLFIIQACRGTELDCGIETDSGVDDDMACHKIPVEADFLYAYSTAPGYYSWRNSKDGSWFIQSLCAMLKQYADKLEFMHILTRVNRKVATEFESFSFDATFHAKKQIPCIVSMLTKELYFYH	–	–	could not kill cancer cells	binding to ELANE (ELANE): ELANE-binding proteins
ANXA6: purified human ANXA6 (R&D Systems) (protein, UniProt P08133 2-673, looked up) Annexin A6: AKPAQGAKYRGSIHDFPGFDPNQDAEALYTAMKGFGSDKEAILDIITSRSNRQRQEVCQSYKSLYGKDLIADLKYELTGKFERLIVGLMRPPAYCDAKEIKDAISGIGTDEKCLIEILASRTNEQMHQLVAAYKDAYERDLEADIIGDTSGHFQKMLVVLLQGTREEDDVVSEDLVQQDVQDLYEAGELKWGTDEAQFIYILGNRSKQHLRLVFDEYLKTTGKPIEASIRGELSGDFEKLMLAVVKCIRSTPEYFAERLFKAMKGLGTRDNTLIRIMVSRSELDMLDIREIFRTKYEKSLYSMIKNDTSGEYKKTLLKLSGGDDDAAGQFFPEAAQVAYQMWELSAVARVELKGTVRPANDFNPDADAKALRKAMKGLGTDEDTIIDIITHRSNVQRQQIRQTFKSHFGRDLMTDLKSEISGDLARLILGLMMPPAHYDAKQLKKAMEGAGTDEKALIEILATRTNAEIRAINEAYKEDYHKSLEDALSSDTSGHFRRILISLATGHREEGGENLDQAREDAQVAAEILEIADTPSGDKTSLETRFMTILCTRSYPHLRRVFQEFIKMTNYDVEHTIKKEMSGDVRDAFVAIVQSVKNKPLFFADKLYKSMKGAGTDEKTLTRIMVSRSEIDLLNIRREFIEKYDKSLHQAIEGDTSGDFLKALLALCGGED	–	–	could not kill cancer cells	–
murine neutrophil elastase (protein, listed as Mus musculus) MALGRLSSRTLAAMLLALFLGGPALASEIVGGRPARPHAWPFMASLQRRGGHFCGATLIARNFVMSAAHCVNGLNFRSVQVVLGAHDLRRQERTRQTFSVQRIFENGFDPSQLLNDIVIIQLNGSATINANVQVAQLPAQGQGVGDRTPCLAMGWGRLGTNRPSPSVLQELNVTVVTNMCRRRVNVCTLVPRRQAGICFGDSGGPLVCNNLVQGIDSFIRGGCGSGLYPDAFAPVAEFADWINSIIRSHNDHLLTHPKDREGRTN	killed cancer cells	cleaved purified CD95 with an identical degradation pattern to ELANE	–	–
